In article PMC11112126:

Tests used:
[1] = target: SH3P2 (Arabidopsis thaliana) (UniProt Q8VWF1); assay: mass photometry; SH3P2 at 100 nM; 25 mM HEPES pH 7.5, 200 mM NaCl, 25 mM KH2PO4 pH 8.0; monomer to dimer
[2] = target: SH3P2 (Arabidopsis thaliana) (UniProt Q8VWF1); assay: mass photometry; SH3P2 at 75 nM; 25 mM HEPES pH 7.5, 200 mM NaCl, 25 mM KH2PO4 pH 8.0; monomer to dimer

## SH3P2 (from UniProt Q8VWF1 1-368) (natural protein)
[1]
  percent of dimers at 100 nM: 85%
  stoichiometry N: 2
[2]
  percent of dimers at 75 nM: 60%
